Columns and labels:
[1] = target: HLA-B*08:01; experiment: IEDB peptide-MHC binding, purified MHC/competitive/radioactivity; filed as Kd, often an IC50 or EC50 that approximates it; ≥ and ≤ were set here for values at or beyond the usual limits of such assays
[2] = target: HLA-A*03:01; experiment: IEDB peptide-MHC binding, purified MHC/direct/fluorescence; filed as Kd, often an IC50 or EC50 that approximates it; ≥ and ≤ were set here for values at or beyond the usual limits of such assays
[3] = target: HLA-B*27:05; experiment: as above
[4] = target: HLA-A*69:01; experiment: as above
[5] = target: HLA-B*58:01; experiment: as above
[6] = target: HLA-A*24:03; experiment: as above
[7] = target: HLA-A*26:01; experiment: as above
[8] = target: HLA-A*31:01; experiment: as above; settings: source organism: Salmonella enterica
[9] = target: HLA-B*08:01; experiment: as above
[10] = target: HLA-A*11:01; experiment: as above
[11] = target: HLA-A*02:01; experiment: as above
[12] = target: HLA-B*40:01; experiment: as above
[13] = target: HLA-A*01:01; experiment: as above
[14] = target: HLA-B*07:02; experiment: as above
[15] = target: HLA-B*15:01; experiment: as above
[16] = target: HLA-B*44:02; experiment: as above
[17] = target: HLA-A*24:02; experiment: IEDB peptide-MHC binding, purified MHC/competitive/radioactivity; filed as Kd, often an IC50 or EC50 that approximates it; ≥ and ≤ were set here for values at or beyond the usual limits of such assays
[18] = target: HLA-A*26:01; experiment: as above
[19] = target: HLA-A*01:01; experiment: as above
[20] = target: HLA-A*23:01; experiment: as above
[21] = target: HLA-A*29:02; experiment: as above
[22] = target: HLA-A*30:02; experiment: as above
[23] = target: HLA-B*07:02; experiment: as above; settings: source organism: Dengue virus 1 Brazil/97-11/1997
[24] = target: HLA-A*30:01; experiment: as above; settings: source organism: Dengue virus 1 Brazil/97-11/1997
[25] = target: HLA-B*15:01; experiment: as above; settings: source organism: Vaccinia virus WR
[26] = target: HLA-A*02:01; experiment: IEDB peptide-MHC binding, purified MHC/competitive/fluorescence; filed as Kd, often an IC50 or EC50 that approximates it; ≥ and ≤ were set here for values at or beyond the usual limits of such assays; settings: source organism: Variola virus
[27] = source organism: Salmonella enterica
[28] = source organism: Salmonella enterica subsp. enterica serovar Typhi
[29] = source organism: Influenza A virus (A/Ann Arbor/6/1960(H2N2))
[30] = source organism: Vaccinia virus WR
[31] = source organism: Vibrio cholerae
[32] = source organism: Mammarenavirus guanaritoense
[33] = source organism: SARS coronavirus Tor2

For QLAKRFSRG, the Kd ([1]; source organism: Dengue virus 3 Singapore/8120/1995) was 1.28 µM.

Work on RKLTSRETAL yielded a Kd ([1]; source organism: Dengue virus 4 Philippines/H241/1956) of 0.178 µM.

In the case of RPQLGVGDV, the Kd [2, 27] is reported as at least 20 µM, the Kd [3, 27] is reported as at least 20 µM and the Kd [4, 27] is reported as at least 20 µM. The Kd [5, 27] was at least 20 µM, the Kd [6, 28] was 6.18 µM and the Kd [7, 27] was at least 20 µM. The Kd [8] was at least 20 µM, the Kd [9, 27] was at least 20 µM and the Kd [10, 27] was at least 20 µM. The Kd [11, 27] was at least 20 µM, the Kd [12, 27] was at least 20 µM and the Kd [13, 27] was at least 20 µM. The Kd [14, 28] was 0.38 µM, the Kd [15, 27] was at least 20 µM and the Kd [16, 27] was at least 20 µM.

In the case of RQEMASRGLW, the Kd [17, 29] is reported as 9.01 µM, the Kd [18, 29] is reported as at least 69.7 µM and the Kd [19, 29] is reported as at least 70.4 µM. The Kd [20, 29] was 1.73 µM, the Kd [21, 29] was 1.88 µM and the Kd [22, 29] was 4.35 µM.

RSRWSRKML was tested, and the Kd [23] was 0.0931 µM and the Kd [24] was 0.0904 µM.

In the case of SAEMRLLSI, the Kd [1, 30] is reported as 0.0205 µM.

Sequence SLLFKTASG has a Kd ([1]; source organism: Dengue virus 3 Martinique/1243/1999) of 0.534 µM.

Sequence SLLKNDVPL has a Kd ([1]; source organism: Dengue virus 1 Brazil/97-11/1997) of 0.124 µM.

Work on SMHFYGWSL yielded a Kd [1, 30] of 0.00285 µM, a Kd [25] of 0.063 µM and a Kd [26] of 0.303 µM.

For SVMPAWQEK, the Kd [2, 31] was 0.0741 µM, the Kd [3, 31] was at least 20 µM and the Kd [4, 31] was at least 20 µM. For the same sequence, the Kd [5, 31] was at least 20 µM, the Kd [6, 31] was 10.3 µM and the Kd [7, 31] was at least 20 µM. For the same sequence, the Kd [9, 31] was at least 20 µM, the Kd [10, 31] was 0.00501 µM and the Kd [11, 31] was at least 20 µM. It also gave a Kd [12, 31] of at least 20 µM, a Kd [13, 31] of at least 20 µM and a Kd [14, 31] of at least 20 µM. The Kd [15, 31] was at least 20 µM and the Kd [16, 31] was at least 20 µM.

Sequence TFHLSIPNF has a Kd ([6]; source organism: Mammarenavirus lassaense) of 0.0345 µM.

VFQPSTGNYV was tested, and the Kd [17, 32] was 1.53 µM, the Kd [18, 32] was at least 69.7 µM and the Kd [19, 32] was at least 70.4 µM. The Kd [20, 32] was 5.66 µM, the Kd [21, 32] was at least 31.6 µM and the Kd [22, 32] was 1.01 µM.

With VYDPLQPEL the Kd [17, 33] was at least 44.8 µM, the Kd [18, 33] was at least 77.9 µM and the Kd [19, 33] was at least 78.1 µM. The Kd [20, 33] was 12.8 µM, the Kd [21, 33] was 0.00842 µM and the Kd [22, 33] was 0.302 µM.

In the case of WKTWGKAKML, the Kd ([1]; source organism: Dengue virus 2 Jamaica/1409/1983) is reported as 3.8 µM.

Work on YYFMKFRRVF yielded a Kd [17, 33] of 0.00392 µM, a Kd [18, 33] of 1.75 µM and a Kd [19, 33] of 3.18 µM. For the same sequence, the Kd [20, 33] was 0.00151 µM, the Kd [21, 33] was 0.0028 µM and the Kd [22, 33] was at least 22.2 µM.
